The values that follow come from patent publication US20260028422A1 (CONCEPT TO MEDICINE BIOTECH, published 2026).

Broadly, the EC50 is the concentration giving half of the maximal effect. Lower therefore signals greater potency. One may read the Kd as the equilibrium constant for the complex coming apart. Low readings indicate a tighter complex, high ones a looser complex. The term koff denotes a measure of how fast the partners let go of each other. As usually defined, the kon is the second-order rate constant of association. A low value points to slow association.

Experiment [1] addresses T1, human MerTK-his protein (human, UniProt Q12866 21-505).
T1 construct: extracellular domain; also called hMerTK-His; human MerTK protein
T1 sequence (looked up): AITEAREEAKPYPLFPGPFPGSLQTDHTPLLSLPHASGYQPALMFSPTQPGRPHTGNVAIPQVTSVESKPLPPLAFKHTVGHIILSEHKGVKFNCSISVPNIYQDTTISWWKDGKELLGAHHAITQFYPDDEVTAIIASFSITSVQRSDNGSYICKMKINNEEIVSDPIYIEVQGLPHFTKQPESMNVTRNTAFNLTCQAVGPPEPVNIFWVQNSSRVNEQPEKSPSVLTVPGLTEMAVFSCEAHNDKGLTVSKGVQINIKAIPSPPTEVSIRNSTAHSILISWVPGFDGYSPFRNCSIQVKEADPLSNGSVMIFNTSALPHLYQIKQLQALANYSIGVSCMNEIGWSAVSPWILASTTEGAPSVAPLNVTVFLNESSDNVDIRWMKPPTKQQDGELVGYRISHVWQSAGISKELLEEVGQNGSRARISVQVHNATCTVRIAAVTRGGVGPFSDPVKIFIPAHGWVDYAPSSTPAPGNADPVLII
In words: ELISA, plate coated with human MerTK-his, OD 450nm. As for the experimental part: (§1) To evaluate the binding activity, the chimeric mAbs were subjected to ELISA test. Briefly, 96-well plates were coated with human or cyno MerTK-his protein at 2 μg/mL in PBS, 100 μL/well at 4° C. overnight, then blocked with 150 μL/well of 1% BSA. Five-fold dilutions of MerTK antibodies starting from 20 nM were added to each well and incubated for 1 hour at room temperature. The plates were washed with PBS/Tween-20 and then incubated with goat anti-human IgG Fe antibody conjugated with Horse Radish Peroxidase (HRP) for 30 minutes (mins) at room temperature. After washing, the plates were developed with TMB substrate and subsequent stop solution was added to complete the reaction. The signal from each well was read by spectrophotometer at OD 450 nm.
(§2) To evaluate the antigen binding activity, the humanized antibodies were subjected to ELISA test as described before.

Experiment [2] has as its target T1, human MerTK-his protein. In words: SPR Biacore 8K, antibody captured on Protein A chip, 50 nM antigen. As for the experimental part: To explore whether the humanized antibodies could maintain their binding kinetics, affinity ranking were performed with Biacore™. The antibodies were captured with a Protein A chips. Human MerTK-his protein at 50 nM was injected over captured antibodies for 180 s at a flow rate of 30 μL/min. The antigen was allowed to dissociate for 600 s. The experiment was carried out on a Biacore™ 8K. Data analysis was carried out using Biacore™ 8K evaluation software.
(In SPR one partner is held on a chip, and binding of the other changes the refractive index at the surface.)

Experiment [3] concerns the target T2, human MerTK expressed on cells (human, UniProt Q12866 21-999).
T2 construct: whole, on cells; also called CHO-K1-hMerTK; CHO-K1-MerTK
T2 sequence (looked up): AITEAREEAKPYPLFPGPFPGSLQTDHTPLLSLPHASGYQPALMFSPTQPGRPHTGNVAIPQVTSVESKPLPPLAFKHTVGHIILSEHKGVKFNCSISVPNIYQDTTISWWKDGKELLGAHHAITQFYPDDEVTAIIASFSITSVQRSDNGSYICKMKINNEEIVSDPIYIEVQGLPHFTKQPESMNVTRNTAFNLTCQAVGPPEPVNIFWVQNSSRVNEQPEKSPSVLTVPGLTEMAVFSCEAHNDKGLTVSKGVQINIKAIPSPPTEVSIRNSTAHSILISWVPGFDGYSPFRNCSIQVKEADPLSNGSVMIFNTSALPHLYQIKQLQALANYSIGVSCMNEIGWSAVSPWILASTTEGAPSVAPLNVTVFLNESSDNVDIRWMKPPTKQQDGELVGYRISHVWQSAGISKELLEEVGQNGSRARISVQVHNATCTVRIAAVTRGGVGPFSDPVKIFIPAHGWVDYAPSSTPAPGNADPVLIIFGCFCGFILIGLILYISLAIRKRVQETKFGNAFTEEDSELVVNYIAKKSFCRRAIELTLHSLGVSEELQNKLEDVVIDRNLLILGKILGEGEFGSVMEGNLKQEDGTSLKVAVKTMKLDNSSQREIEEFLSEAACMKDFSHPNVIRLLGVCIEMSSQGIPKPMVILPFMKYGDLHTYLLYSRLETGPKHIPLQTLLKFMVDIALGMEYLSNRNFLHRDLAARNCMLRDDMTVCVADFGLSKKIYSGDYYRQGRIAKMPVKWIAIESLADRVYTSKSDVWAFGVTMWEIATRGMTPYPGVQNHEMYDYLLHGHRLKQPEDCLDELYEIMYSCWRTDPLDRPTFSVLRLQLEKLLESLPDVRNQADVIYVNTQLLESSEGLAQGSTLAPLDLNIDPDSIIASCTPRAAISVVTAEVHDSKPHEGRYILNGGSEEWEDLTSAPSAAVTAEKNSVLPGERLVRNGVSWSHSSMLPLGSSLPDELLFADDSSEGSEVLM
In words: FACS on CHO-K1 cells overexpressing human MerTK, MFI (AF488).

Experiment [4] concerns the target T1, human MerTK-his protein. In words: ELISA, plate coated with human MerTK-his, OD 450nm. As for the experimental part:
as §1, §2
This is another data set of the same source.

Experiment [5] concerns the target T2, human MerTK expressed on cells. The experiment can be described thus: FACS on CHO-K1 cells overexpressing human MerTK, MFI (PE). As to the method: To evaluate the binding property to the antigen expressed on the cells, the chimeric monoclonal antibodies were analyzed for their binding to human MerTK overexpressed on CHO-K1 cells by FACS. Briefly, human MerTK overexpressing CHO-K1 (CHO-K1-MerTK) cells were firstly incubated with 5-fold serially diluted mAbs starting at 20 nM at 4° C. for 1 hour. After washing with FACS buffer, the PE conjugated anti-human IgG-Fc secondary antibody was added to each well and incubated at 4° C., for 30 mins. The mean fluorescence intensity (MFI) of PE were evaluated by QuantAnalyzer 16.
To evaluate the binding property to the antigen expressed on the cells, the humanized antibodies were analyzed by FACS as described before.

The target is the same in experiment [6]. In words: FACS on CHO-K1 cells overexpressing human MerTK, MFI (AF488). The source holds these as a separate data set.

Like-named read-outs stand apart in the source and are kept apart here.

B1: 265F11B5Hu-11 (antibody, V domains shown)
VH: QVQLVQSGAEVKKPGASVKVSCKASGYTFTTYDINWVRQAPGQGLEWIGWIYPRDGYTKYNEKFKGRATMTTDTSTSTAYMELRSLRSDDTAVYFCTRGYYDNLYYFDYWGQGTTVTVSS
VL: EIVLTQSPDFQSVTPKEKVTITCSASSIISSNYFHWYQQKPDQSPKLLIYRTSNLASGVPSRFSGSGSGTDYTLTINSLEAEDAATYYCQQGRSVPLTFGQGTKLEIK
The molecule B1 had an EC50 in experiment [1] of 0.042 nM. In experiment [2], the Kd turned out to be 1.94 nM, the koff was 0.000378 s⁻¹ and the kon is 195000 M⁻¹ s⁻¹. Also, in experiment [3], the midpoint of the response, the EC50, lay at 0.22 nM.

B2: 265F11B5Hu-12 (antibody, V domains shown)
VH: QVQLVQSGAEVKKPGASVKVSCKASGYTFTTYDINWVRQAPGQGLEWIGWIYPRDGYTKYNEKFKGRATLAVDTSTSTAYMELRSLRSDDTAVYFCTRGYYDNLYYFDYWGQGTTVTVSS
VL: EIVLTQSPDFQSVTPKEKVTITCSASSIISSNYFHWYQQKPDQSPKLLIYRTSNLASGVPSRFSGSGSGTDYTLTINSLEAEDAATYYCQQGRSVPLTFGQGTKLEIK
B2 yielded an EC50 in experiment [1] of 0.052 nM. In experiment [2], this molecule displayed a Kd of 1.64 nM, a koff of 0.00031 s⁻¹ and a kon of 189000 M⁻¹ s⁻¹. Also, in experiment [3], the EC50 came to 0.19 nM.

B3: 10F7D9 Hu-2 (antibody, V domains shown)
VH: QIQLVQSGSELKKPGASVKVSCKASGYTFTNYGMNWVRQAPGQGLEWMGWINTYTGEPTYADDFKGRFVFSLDTSVSTAYLQISSLKAEDTAVYYCATYGHYAWFAYWGQGTLVTVSS
VL: EIVLTQSPDFQSVTPKEKVTITCRASSSVSYMHWYQQKPDQSPKLLIKATSNLASGVPSRFSGSGSGTDFTLTINSLEAEDAATYYCQQWGTKPLTFGQGTKLEIK
notes: also called Hu-2 of 10F7D9
For the molecule B3, the EC50 came to 0.035 nM in experiment [4] and 0.45 nM in experiment [5].

B4: 10F7D9 Hu-1 (antibody, V domains shown)
VH: QVQLVQSGSELKKPGASVKVSCKASGYTFTNYGMNWVRQAPGQGLEWMGWINTYTGEPTYADDFKGRFVFSLDTSVSTAYLQISSLKAEDTAVYYCARYGHYAWFAYWGQGTLVTVSS
VL: EIVLTQSPDFQSVTPKEKVTITCRASSSVSYMHWYQQKPDQSPKLLIKATSNLASGVPSRFSGSGSGTDFTLTINSLEAEDAATYYCQQWGTKPLTFGQGTKLEIK
notes: also called Hu-1 of 10F7D9
As to B4, the EC50 was determined as 0.028 nM in experiment [4] and 0.29 nM in experiment [5].

B5: 10F7D9 Hu-14 (antibody, V domains shown)
VH: QIQLVQSGSELKKPGASVKVSCKASGYTFTNYGMNWVRQAPGQGLEWMGWINTYTGEPTYADDFKGRFVFSLDTSVSTAYLQISSLKAEDTAVYYCATYGHYAWFAYWGQGTLVTVSS
VL: EIVLTQSPDFQSVTPKEKVTITCRASSSVSYMHWYQQKPDQSPKPWIYATSNLASGVPSRFSGSGSGTDFTLTINSLEAEDAATYFCQQWGTKPLTFGQGTKLEIK
notes: also called Hu-14 of 10F7D9
On to B5, for which the EC50 in experiment [4] was found to be 0.027 nM; in experiment [5] it was 0.15 nM.

B6: 10F7D9 Hu-8 (antibody, V domains shown)
VH: QIQLVQSGSELKKPGASVKVSCKASGYTFTNYGMNWVRQAPGQGLEWMGWINTYTGEPTYADDFKGRFVFSLDTSVSTAYLQISSLKAEDTAVYYCATYGHYAWFAYWGQGTLVTVSS
VL: EIVLTQSPDFQSVTPKEKVTITCRASSSVSYMHWYQQKPDQSPKPWIKATSNLASGVPSRFSGSGSGTDFTLTINSLEAEDAATYYCQQWGTKPLTFGQGTKLEIK
notes: also called Hu-8 of 10F7D9
With B6, the EC50 in experiment [4] came out at 0.0024 nM; in experiment [5], 0.1 nM.

B7: 10F7D9 Hu-6 (antibody, V domains shown)
VH: QVQLVQSGSELKKPGASVKISCKASGYTFTNYGMNWVRQAPGQGLEWMGWINTYTGEPTYADDFKGRFVFSLDTSVSTAYLQINNLKAEDTAVYFCATYGHYAWFAYWGQGTLVTVSS
VL: EIVLTQSPDFQSVTPKEKVTITCRASSSVSYMHWYQQKPDQSPKLLIKATSNLASGVPSRFSGSGSGTDFTLTINSLEAEDAATYYCQQWGTKPLTFGQGTKLEIK
notes: also called Hu-6 of 10F7D9
For the molecule B7, the EC50 was found to be 0.033 nM in experiment [4] and 0.45 nM in experiment [5].

B8: 10F7D9 Hu-4 (antibody, V domains shown)
VH: QIQLVQSGSELKKPGASVKVSCKASGYTFTNYGMNWVRQAPGQGLKWMGWINTYTGEPTYADDFKGRFVFSLDTSVSTAYLQISSLKAEDTAVYFCATYGHYAWFAYWGQGTLVTVSS
VL: EIVLTQSPDFQSVTPKEKVTITCRASSSVSYMHWYQQKPDQSPKLLIKATSNLASGVPSRFSGSGSGTDFTLTINSLEAEDAATYYCQQWGTKPLTFGQGTKLEIK
notes: also called Hu-4 of 10F7D9
For B8, the EC50 in experiment [4] is 0.027 nM; in experiment [5] it was 0.47 nM.

B9: 10F7D9 Hu-3 (antibody, V domains shown)
VH: QIQLVQSGSELKKPGASVKVSCKASGYTFTNYGMNWVRQAPGQGLEWMGWINTYTGEPTYADDFKGRFVFSLDTSVSTAYLQISSLKAEDTAVYFCATYGHYAWFAYWGQGTLVTVSS
VL: EIVLTQSPDFQSVTPKEKVTITCRASSSVSYMHWYQQKPDQSPKLLIKATSNLASGVPSRFSGSGSGTDFTLTINSLEAEDAATYYCQQWGTKPLTFGQGTKLEIK
notes: also called Hu-3 of 10F7D9
For the molecule B9, the concentration for a half-maximal effect (EC50) in experiment [4] worked out at 0.034 nM; in experiment [5], 1.2 nM.

B10: 254B4D9Hu-1 (antibody, V domains shown)
VH: QVQLVQSGSELKKPGASVKVSCKASGYTFTAYGMSWVKQAPGQGLQWMGWINTYSGVPTYTDDFKGRFVFSLDTSVSTAFLQISSLKAEDTAVYFCARRAAVVAKYWYFDVWGQGTTVTVSS
VL: DIQMTQSPSSLSASVGDRVTITCKSSQDINKRISWYQQKPGKAPKLLIHSTSSLQPGVPSRFSGSGSGRDFTFTISSLQPEDIATYFCLQYDNLLTFGQGTKLEIK
In experiment [4], B10 registered an EC50 of 0.094 nM. Also, in experiment [2], the Kd was determined as 2.19 nM, the koff was determined as 0.000475 s⁻¹ and the kon worked out at 217000 M⁻¹ s⁻¹. In experiment [6], the half-maximal effective concentration (EC50) stood at 0.85 nM.
